Measurements from the DeepSol protein solubility set.

Assay: soluble on expression in E. coli; label from the status in PepcDB or PDB records

Sequence	soluble on expression in E. coli
MGSHHHHHHDITSLYKKAGSENLYFQMKLRYLNILKEKLGREPTFVELQAFSVMWSEHCGYSHTKKYIRRLPKTGFEGNAGVVNLDDYYSVAFKIESHNHPSAIEPYNGAATGVGGIIRDVLAMGARPTAIFDSLHMSRIIDGIIEGIADYGNSIGVPTVGGELRISSLYAHNPLVNVLAAGVVRNDMLVDSKASRPGQVIVIFGGATGRDGIHGASFASEDLTGDKATKLSIQVGDPFAEKMLIEAFLEMVEEGLVEGAQDLGAGGVLSATSELVAKGNLGAIVHLDRVPLREPDMEPWEILISESQERMAVVTSPQKASRILEIARKHLLFGDVVAEVIEEPVYRVMYRNDLVMEVPVQLLANAPEEDIVEYTPGKIPEFKRVEFEEVNAREVFEQYDHMVGTDTVVPPGFGAAVMRIKRDGGYSLVTHSRADLALQDTYWGTLIAVLESVRKTLSVGAEPLAITNCVNYGDPDVDPVGLSAMMTALKNACEFSGVPVASGNASLYNTYQGKPIPPTLVVGMLGKVNPQKVAKPKPSKVFAVGWNDFELEREKELWRAIRKLSEEGAFILSSSQLLTRTHVETFREYGLKIEVKLPEVRPAHQMVLVFSERTPVVDVPVKEIGTLSR	soluble
MAKKLLLVGGGHSNALVLKHWCRHPLADVELTLVSDVRQTPYSGMLPGYLAGFYSYGESHIDLAPLCASAGAIFVQDKAIAVNPEQNLLTTAEGRQLSFDCLSLDIGSTPFIDDIVGAEYGIPAKPVPQFLTAWLALLENIDQNRPKKVTLAIAGGGAGGVELAFNLQARLAKLFPAMGLDMQIWQRGAILLPHHSVQGRKLIERLLVKQNIAVLLNHPVTSIEPEFSPDDNPLTCYKLWSNDHWQSVNAVFLVTQASPAPWLAQSGLSLDSRGFVSVKPTLQSYSHGHIFAAGDVANMIDHPRPKAGVFAVRQGKPLFENLQHYLSHQTLKTFVPQSKYLSLLGTRDGRAIALWGPWASYGHCWWRLKDYIDRQFMAGFSA	soluble
MAGDPMSMHPALKYIQGYPQHIVEQVAQLIANDKLIPWFEQRYPERHDIQSEKALFDFTMALKNQYMKKTAPLSKVVYDGKIHLINNALGLHSYVSRVHGNKLKAKNEIRIANVFKQAPEPLLRMLVVHELAHLKEKEHNKAFYQLCCHMEPNYHQLELDARLYMMVLELKAGKALEHHHHHH	not soluble
MGHHHHHHSHMSHKNMKLKERVLIPVKQYPKFNFVGKILGPQGNTIKRLQEETGAKISVLGKGSMRDKAKEEELRKGGDPKYAHLNMDLHVFIEVFGPPCEAYALMAHAMEEVKKFLVPDMMDDICQEQFLELSYLNGVPEPS	not soluble
MAHHHHHHMSGRAGRRGLDRVGVVIAMVDEAVEPETLKQLTGGGADVLNSSFHLTYNMVLNLLRVEDVDPEFMMHRSFAQFQRLRNRPVLEKRAEALTEEIESIHVEHEEVFRQFTLCQELLANRRKQLADILKQPTFLKRFTHSGRLLRIRRAADDVLFNWGICRAFHAKVPNADPKSPSEFSVDVAVICLKANAAKPTSLLPCHVNDFTTSTADLYTLTFDFTDIEGVARFRVNLPAEPDTESGRAQMVQTLSKLHRQYDDKVPLLTAEEMGVDDPQFEKLRVQVERLEAQLAENEFVQNPTKELESDFERFTHRAKLEKELNDIREELNQASRAIFSEELKQMMRVLRRLDYIDKDNVILRKARVACEITTTDENEILLTELLFKGVLNSMETEMIVALMSCLVNVHRTPDGFSLPEEFQQPLKELNEIVSRIATVSIESGVLQEGGVGVERTMPSLMEVTYMWAKGAKFVDIMSKTSAYEGEIVRMMRRLEEQLRQMAGAARSPAIGSMELHDKFLKGIQLIKRDIVFVSSLYL	not soluble
MATITDIAKVANVSISTVSRVLNYDPNLSVTEETKRKIFEAAETLNYTKYKTKNKNKQQEQLTPNLSVQTAPQEPSIAVVQWRSDDEELTDIYYMSIRLGAEKRAEELGYNILKVSQLEQHNLQGIDGILAIGKFTQKTLQELQQLHPNLCVIGSNFPLEEFDSVNTDFYQATEIALTHLLELGHEKIAFIGAEESENMYGFRRYKTPTTNAYLDIMQHYHLFNEDYFILKENGMLDVKTGEQLTEEALEKWGNDLPTAILAYNDAFAIGVIHTLAAHGIKVPEEISVMGINDISISQYVSPPLSSVHAFTEEMGETGINLLHKRIQMPSIPRRVLLNTELVVRQSTTSPRQK	soluble
MAHHHHHHMSLPASHTTTPATASPEVLLAACTAEVQQLRDALHEVTLRERDGCSGSRGGTGGVAGGALGDVWEGKYLAMIRKNRDLTVQLGTTQQQLAAAQKALQAEQEKTQRLVAAVTVSSLGARGAKAGSKSAAGAAGVDDGCNSNSGSKSGGGSSGSEGAAAASSAAVARVYDKLHQKQLAMAEVQRENVALRSLIQREVGLRDDTKEVNRLLRRATAVSSNGGSAAAAAGGTSASGADGGGWRGRAEEIVLLKSKLKDAQREVEEMAAAQSSSENGTDACTDPLSLPASVRAFLGASGDPAAEARSVVTTTTAQVRRPRRDVDDDARDRLSAMQQQRAAQQRQLAADLAELQQQLNEERMRSSALQARTKTMKSELDTLRSYVDTILEKSSTDDELVEAYKTELQRAHEEARHWRRVAADALKEAGGGKTSAALTVSGVHNGLNNAAAAAVRTAPYRKAAGDEKAVAAGGGDAGNVRGAPLPLPPPQPLTSFSRSLYEWVCQACDEVPEGKEQERTEPAVAASAKQLAAVLRQAFQHLVLVEQHTVAGNDMGHASTDSASSESILLKENAALKTRIRALSELMEKELQAQRVLWATAAAGAGATPSTETKERERQQ	not soluble
MSLRLERLNYNKIKIFLTLDDLTDRGLTKEDLWKDSFKVHQLFKDMMNEANTELGFEANGPIAVEVYSLQAQGMVVIVTKNQDADSEDDEYDDDYIEMQVKLDESADIIYQFHSFEDIIQLSESLQRIGITGGTVYHYDGQYFLSLEDLGSHTAEGVVAVLAEYGNPTTLTIYRLQEYGKLIMDGNAVETIQTHFSEGHHHHHH	soluble
SKKVIGKKRAHAEDDELDPMDPSSYSDAPRGGWVVGLKGVQPRAADTTASGPLFQQRPYPSPGAVLRRNAEVASSQKKKPNSQFTEITKRGDGSDGLGDAD	soluble
MAHHHHHHMSVCARALWQRSRLLCRCLIMCPTPLSTARWRAGHGWLSRKRGDAEAPPSRERRRHPHANTRHSHAHMMALTLDPRWNAMRRGIAGIGVCAVDGRGGAAAPGSCRLSLCSCLSPASSGGCGGADSALSEGGHCRECVCGMRGRLPSPKKPWNSLAGVLVGVRVTHAASVLEDRPVALGRLVSRLSEAAYKAEMLRTGKRDRDGEDRRGDAAQLLVVDAGTRVTVRTEGDPASGAAVAPSAMHMKGTIAKVNGNATYIILMEKGEVELSVASERIVALQPRKKLFQSARLVALV	soluble
MSLRSLTHIAKIELPPVRRVTYVKHYSIQPANLEFNAEGTPVSRDFDDVYFSNDNGLEETRYVFLGGNQLEARFPEHPHPLFVVAESGFGTGLNFLTLWQAFDQFREAHPQAQLQRLHFISFEKFPLTRADLALAHQHWPELAPWAEQLQAQWPMPLPGCHRLLLDEGRVTLDLWFGDINELISQLDDSLNQKVDAWFLDGFAPAKNPDMWTQNLFNAMARLARPGGTLATFTSAGFVRRGLQEAGFTMQKRKGFGRKREMLCGVMEQTLPLPCSTPWFNRTGSSKREVAIIGGGIASALLSLALLRRGWQVTLYCADEAPALGASGNRQGALYPLLSKHDEALNRFFSNGFTFARRLYDSLPVKFDHDWCGVTQLGWDEKSQHKIAQMLSMDLPEELAVAVEANAVEQITGVTTNCSGITYPQGGWLCPAELTRNVLELAQQQGLQIYYQYQLQDLSRKDDCWLLTFAGDQQATHSVVVLANGHQISRFSQTSSLPVYSVAGQVSHIPTTPELAKLKQVLCYDGYLTPQNPANQHHCIGASYHRGSEETAYSEDNQQQNRQRLIDCFPHAQWAKTVDVSKKEARCGVRCATRDHLPMVGNVPDYEATLVEYASLAEQKDKAVSAPVFDDLFMFAALGSRGLCSAPLCAEILAAQMSDEPIPMDASTLAALNPNRLWVRKLLKGKAVKAGEGHHHHHH	soluble
MGSDKIHHHHHHMRVILAPMQGVLDPFVRELLTEVNDYDLCITEFVRVVDQLLPEKVFYRLCPELKNQGFTSSGTPVRVQLLGQHPKCLAENAIRAIDLGSHGIDLNCGCPSKTVNGSNGGAALLKQPELIYRATQALRRAVPSEFPVSVKVRLGWDDISQAFEIADAVEQGGATEITVHGRTKADGYRADRINWKKISEVRERLSIPVIANGEIWHWQDGQDCLSQTGCQDLMVGRGALNIPNLSHVLKSNAEKMPWYEIQKILQKYANVENEYDSGFYHVARIKQWLRYLNKEYNEANQVFDKIKTCQTAEDLKLRLNEK	not soluble
AIELVPEHQTVPVSIGVPATLRCSMKGEAIGNYYINWYRKTQGNTMTFIYREKDIYGPGFKDNFQGDIDIAKNLAVLKILAPSERDEGSYYCACDTLGMGGEYTDKLIFGKGTRVTVEPRSQPHTKPSVFVMKNGTNVACLVKEFYPKDIRINLVSSKKITEFDPAIVISPSGKYNAVKLGKYEDSNSVTCSVQHDNKTVHSTDFEVKTDSTDHVKPKETENTKQPSKS	soluble
MGSDKIHHHHHHMANLLSTCTSESGNIQHISPQNAGWEYVGFDVWQLKAGESITLPSDERERCLVLVAGLASVKAADSFFYRIGQRMSPFERIPAYSVYLPHHTEAKVTAETDLELAVCSAPGFGELPVRLISPQEVGVEHRGKGRNQRLVHNILPDSQLADSLLVVEVYTNEGDTSSWPAHKHDTAVEGQETYLEETYYHRFNPPQGFCLQRVYTDDRSLDECMAVYNRDVVKVPKGYHPVATIAGYDNYYLNVMAGPLRKWRFTWEENHAWINSPDYPR	not soluble
MTAGPQAHGHAPQTAGLAALEARLRQDLAWLELPAKPWTLPHALDGQPVLDVAIIGGGMAGLAAATALKHLGIGAVVFDRAPEGYEGPWATTARMETLRSPKQLTGPALGLPALTFRAWFEAQFGADAWETLDKIPRLQWMDYLRWYRRVLQLEVRNAHHVRTVQPRADGAVELTLDTPDAAGQRVLARRVVLATGRDGLGGPAVPAFAHRLPHRWWAHSSDAMDYGALAGKRVGVIGAGASAMDSAATALEAGAASVDLLIRRPDLPRINKGKGAGSPGLVHGHQHLPDAWKWRIRHYINAEQVPPPRGSTLRVSRHPNARFNLGCPVLGVDEHNGALHVTTPKGVFRLDFLIFSTGFRLDWAARPEFSALAPHVRLWRDRYTPRPGEEDAELSDSPDLGPAFELREKTPGQLPGLSRVHCFCYPASLTHGSVSGDIPAISEGARRLAQGIAGLLYQEDIEGHYAAMQAYAEPEIFGDEWTPAPPPQSEPAAAAASPAREAARLEHHHHHH	not soluble
MGSDKIHHHHHHMSGQCLYILRNRTNWHVNRLRVFTPSQEGGASVCKRTTRRAADTIPRNIDSCCDRVLRNGILRRSRAAPTNRDTNMLHQNNGFHANALLGSLADDSLRALAPHLELVKIKSAQLLCETDEPMRHLYFPTTAMMSVLYLMEDGAMVEVAAVGNEGVVGVSTLADYGCGGASGRIEVRSGGYAYRVSTQVFRREFDRSLDTFQLMLRYWQAAMTQIARGALCNRHHSVSEQLSRWLLLAHDRVEGDELAVTQQTIANMLGVRREGITEAAGKLQEAGLIRQRRGHITVLDREGLEARACECYGVIRGEFNRLILEARRDAHAPQPIPAEGRPLRVAGYHGAVRSAA	not soluble
MALSEQSKDLSDPNFAAEAPNSEVHSSPGVSEGVPPSATLAEPQSPPLGPTAAPQAAPPPQAPNDEGDPKALQQAAEEGRAHQAPSAAQPGPAPPAPAQLVQKAHELMWYVLVKDQKKMIIWFPDMVKDVIGSYKKWCRSILRRTSLILARVFGLHLRLTSLHTMEFALVKALEPEELDRVALSNRMPMTGLLLMILSLIYVKGRGARESAVWNVLRILGLRPWKKHSTFGDVRKLITEEFVQMNYLKYQRVPYVEPPEYEFFWGSRASREITKMQIMEFLARVFKKDPQAWPSRYREALEEARALREANPTAHYPRSSVSEGHHHHHH	soluble
